Source: the DeepSol protein solubility set

Assay: soluble on expression in E. coli; label from the status in PepcDB or PDB records

| Sequence | soluble on expression in E. coli |
| --- | --- |
| MGLFFAQNMMYNHTITVYDRNYELVKVIPDEVDLSKYGHSRFKGKYRGAPVEASFSHNGKYAWISNYQMYGPGFNNPGSDKCHPSQKTDKSFLYRINTETLKIDRVIPVGSVPKFVATSTDENLILVSNWCSWDLSVVDINQNQEIKRIKLGPYPRGIVVDPASETAYVAVMGSYNIAKVNLRDFSVQWLRNIGSSPRHLNIDPAGKYLYASLNGEGKIAKISLPQGNLVKKIATGNAPRSMVLSANGQTLYVVNYGEDTVSKVRTSDMKVLQKVKVEPDPIGITYDPQTREVWVACYSGNIMIFQDLEHHHHHH | soluble |
| MDIMQGPSESFVDFANRLIKAVEGSDLPPSARAPVIIDCFRQKSQPDIQQLIRTAPSTLTTPGEIIKYVLDRQKTAPLTDQGIAAAMSSAIQPLIM | soluble |
| GNIESIENLQGIRALQQQAPQLLSSGLPNEQQFSLLKQAGVDVVINLMPDSSKDAHPDEGKLVTQAGMDYVYIPVDWQNPKVEDVEAFFAAMDQHKGKDVLVHCLANYRASAFAYLYQLKQGQNPNMAQTMTPWNDELAIYPKWQALLTEVSAKYGH | soluble |
| MSYQIQYNDFPTFLRKHFPYKVQKISLNAGFTCPNRDGTKGWGGCTYCNNQTFNPDYCRTEKSIATQLEEGKCFFAHKYPEMKYLAYFQAYTNTYAELEGLKRKYEEALQVDGVVGLVIGTRPDCMPEELLQYLEELNRHTFLMVEYGIESASDETLRRINRGHTYADTVEAVQRTAACGILTGGHVILGLPGETHDTMVEQAGILSALPLSTLKIHQLQLIRGTRMAHEYEENPE | not soluble |
| MEVHDKIRTLREVNQWTQEEMAEKLEMSVNGYSKIERGKSGINLDKLRQIAQIFNIDVVELLAEQNRSFFFSIGDNTNNHHNIIGSDEMLVFENEKLRSLLDAKDELIRQKDSEIAVLKKLVILLEEKK | not soluble |
| MTEYERPQTPGVVTHDAVVLAGGAARRLGGADKPGVRVGGRALLDRVLAACAGAATTVVVADPRATARPVVWAREEPPGAGPVAALDAGLRRTTAAYVVVLSADLPFLDEETVRRLLSTLQASGTEGVLLTDPGGRDQPLVAAYRSAALRRELAELAAGHGTLAGLPLRVLVAALDLTRVSDPVASFDCDTWDDIAAARSRIREHGNVLDEWISAVKDELGIDLAVDTGILLDLARDAAHGVARPAAPLTTFLVGYAAAQAGGGPEAVAEAARKAAALALRWADEAAAEAGPDAGLEHHHHHH | not soluble |
| MGSDKIHHHHHHMDAIDLKRLSDFVRHRQNEDGGFAFCKPLPSTLAETFYAVSILTSIGEDVPRREKVVEFLKSRIQTEINSLFYTLHSLNLLGEDLPDYSSFLLKRLEGLKAERKYLLSDGGVTATYTFLQPNALRDAYMISTLLHLYNRDVPEETKMLVRRYRRETEFGVGYGVKKPNLEETFYASYILRDKAVISFVKSFESNGGFAKQPGGYPPYLEDTYYATSTLSLLSQRYSNPRTAEFIASLQNANGGFRRSIHGGISTLEDSYYAVEVLRRLEFR | not soluble |
| PLGSEEEEEDAGLVAEAEAVAAGWMLDFLCLSLCRAFRDGRSEDFRRTRNSAEAIIHGLSSLTACQLRTIYICQFLTRIAAGKTLDAQFENDERITPLESALMIWGSIEKEHDKLHEEIQNLIKIQAIAVCMENGNFKEAEEVFERIFGDPNSHMPFKSKLLMIISQKDTFHSFFQHFSYNHMMEKIKSYVNYVLSEKSSTFLMKAAAKVVESKR | soluble |
| VVFVTVGTTSFDALVKAVVSQNVKDELQKRGFTHLLIQMGRGIFFPTKCDGADGSLVVDYFTFSSSIADYIRSASLVISHAGSGSIFETLKLGKPLIVVVNEDLMDNHQCELAEALEERKHLYYTRPHSLHQTLTKMELGSLVQYTPGDGTPVARIIDRFLGFPDD | not soluble |
| MGMTPAQEVISYLINAAIGVSSTSSRPFRDAPPGCPDTLLVQCVKWFFRNGDFSNFYEDIKYLVKGKSLAGFVNSHLMVCPELIRIIVENADNKSRRVKFLIKKDEFAICVGRGRLITFPFTKDMEEPACILAEYTELLFSFPHYDIEYSFEGSYGLSRNMDLTETHIMLLSKLTPSMFAEKARPRRVRERNGRLAVRMSRISWNRSGLYYNAIIQFFESLRGTVITQGEQPLCEKSVTYQEMLKHTLAHPGVHQLDSRPNFQWKISMRKTRKND | not soluble |
| MGSDKIHHHHHHMKFKIHSDITYQVMSPTTFIFNVHALRTESQHILDESLIVTPPIEIEEFSYNSGTSRFVRLKATENTTFSMSYTATVDTQYKVIDQRQELETVPVVDLDGDIIPFLFPSRYCQSDKLQKLAYKEFGKIENVYSKVLAITDWIYNNVEYISGSTNSQTSAFDTITERAGVCRDFAHLGIALCRALSIPARYFTGYAFKLNPPDFHACFEAYIGGNWIIFDATRLVPLNGLVKIATGRDAADAAVASIFGNASSTNMHVECASLDTDFTPFWYDKNSLKGLSFQ | not soluble |
| MNDDLIMRKKPEQIEMEFQDSGESALVKSTLLSSLQNSEWEIAVRKEVKKFLEKARDDVSAKEVFDAVKDMARREIPQEAKKKLYDQVLEFVTTTNKK | not soluble |
| MGAASCEDEELEFKLVFGEEKEAPPLGAGGLGEELDSEDAPPCCRLALGEPPPYGAAPIGIPRPPPPRPGMHSPPPRPAPSPGTWESQPARSVRLGGPGGGAGGAGGGRVLECPSIRITSISPTPEPPAALEDNPDAWGDGSPRDYPPPEGFGGYREAGAQGGGAFFSPSPGSSSLSSWSFFSDASDEAALYAACDEVESELNEAASRFGLGSPLPSPRASPRPWTPEDPWSLYGPSPGGRGPEDSWLLLSAPGPTPASPRPASPCGKRRYSSSGTPSSASPALSRRGSLGEEGSEPPPPPPLPLARDPGSPGPFDYVGAPPAESIPQKTRRTSSEQAVALPRSEEPASCNGKLPLGAEESVAPPGGSRKEVAGMDYLAVPSPLAWSKARIGGHSPIFRTSALPPLDWPLPSQYEQLELRIEVQPRAHHRAHYETEGSRGAVKAAPGGHPVVKLLGYSEKPLTLQMFIGTADERNLRPHAFYQVHRITGKMVATASYEAVVSGTKVLEMTLLPENNMAANIDCAGILKLRNSDIELRKGETDIGRKNTRVRLVFRVHVPQGGGKVVSVQAASVPIECSQRSAQELPQVEAYSPSACSVRGGEELVLTGSNFLPDSKVVFIERGPDGKLQWEEEATVNRLQSNEVTLTLTVPEYSNKRVSRPVQVYFYVSNGRRKRSPTQSFRFLPVICKEEPLPDSSLRGFPSASATPFGTDMDFSPPRPPYPSYPHEDPACETPYLSEGFGYGMPPLYPQTGPPPSYRPGLRMFPETRGTT | soluble |
| AFSFAAEHGLELDKVDIDLTDKAAMQDGARTFANYCMGCHSAKFQRYERVADDLGIPHELMLEKLVFTGAKIGDHMQIGMKPSDAKTWFGAAPPDLTLVARVRGTDWLYTYLRSFYEDPSRPYGVNNKVFPNVGMPNVLVGLQGNQVVGCKQVQTVVDGKKQFDPLTGSPLTHEACDQLTITPNSGTLTAEQFDEKVKNLVTFLAYSANP | not soluble |
| MGSDKIHHHHHHMNNSIITDDEVREFYLNCSSQTIIESLLSLHESLRLYSQNHEILLNRMFKKLDETNADSNISHIFMPVVSKDFSGIKILVNNNNKNFQGVINVIEPETGKLIGCFEAKQITAIRTALASCIGLYKQLSCSHDKLFRFENGTCYLTCFGTGLQAFWHIYIAIKLIMSGIVGESLKLVEINILYHNNMMSLDRLKSLKNLFGSNIKIELNQYQINDISSEGNGAVSNSDIIFGCLPTLEPNLFLRQLLNSKASVEQKHTYISLIGSYKPVMHECDKELIDKFKSDNESACILVDSREHTLLESGELIDSNIAPHNLIEIGELDTLKNTVLNLNEKGCKRTITLCKIVGLAVMDVALAKEFLSLRTKNTENKE | not soluble |
| MGSDKIHHHHHHMRNIPDQEEYFALLIEFDFEDFNDLPQNAGTSQNYVQGQLNPLLESALHQFIDFSLVAPPSAFKFRKRELLELIYYSGYTAIAKLNMNKSLSERVQTLISYHLSTELTAEFIAAQLFMSSSTLRRKLKSEGNSIQDIRNRVRLGHGLHLIQTTNNSIGNIAFECGYQSQSRFTEQFKNLFGITPRELRKTKMLT | not soluble |
| AIANSLVRRSAQQLSLWRTYCIKHNASEAASPGRNAGRPNYEEFIGRHQRQAQCSIVVQVSSEKSYEELYNYCSSFGSIMGAHHYCVRQDETLHYILLEYATSDEAAAAIGAGVTNGELSGVPVRSPFLWFRAAGGGRRSPKLVANTAPALLSLDGTRQVDQRHLLGLLRGAADIEEQVQQLYEHTRLNELGIRMRFLAALQVQQAIAGMFPAAQAQPFGSSVNGFGRMGCDLDLILRFDSDMGAKIPLEAAVPSRLVYHTKENLSNGRSQTQRHMECFGDMLHLFLPGVCHVRRILQARVPIIKYHHEHLDLEVDLSMSNLTGFYMSELLYMFGEMDPRVRPLTFTIRRWAQTCGLTNPSPGRWISNFSLTCLVMFFLQQLRQPILPTIGALAKAAEPGDSRVTEDGINCTFTRNVDRLGFRSRNQSSLSELLLQFFEFYSQFDFHNRAISLNEGKPLSKPDHSAMYIVNPLEQLLNVSKNVSLEECERLRIEVRNAAWVLESEVENASVPEGDGQELSCGLLNLFKHPEKAVIRPNMFFKPRMVEVSDLFEQKEAGATSSSTPPTPAITYKSASVRQQVQSIKAATRSELKQLRGSGSSVPTSSPNNRRRS | soluble |
| MRGVVKELNDDGFGVLGNVLVPFSAPGDEVEILKIEKVKKAKIASKWKLIKSSPLRVGARCKVFGRCGGCSLQHLSYDYQLEFKGERIRRLLGVDVEVIPSPRIFGHRNRIDLAVTVEGIGFRERGKWWKIVDIQECPVFGKTSRKAIERLREFIEEERISVWNVKKDEGFLRYMVLREGKFTGEVMVNLVTKEGKLPDPSKYFDFATSIYWSVNRTKSDVSYGEVESVWGREFITEKLDDVIYLIHPNSFFQTNSYQAVNLVKKVSELVEGERVLDMYSGVGTFGIYLAKRGFKVVGFDSNEFAIEMARKNAKINKVDAVFDVATDREVEVNGFDTVIVDPPRVGLHPKLIKKLNREKPEVIVYVSCNPKTFARDIEKLEYKIDEIVALDMFPHTPHLELVAKLIV | soluble |
| MHCPFCRHPDSRVIDSRETDEGQAIRRRRSCPECGRRFTTVETAVLAVVKRSGVTEPFSREKVISGVRRACQGRQVDDDALNLLAQQVEDSVRAAGSPEIPSHDVGLAILGPLRELDEVAYLRFASVYRSFSSADDFAREIEALRAHRNLSAHS | soluble |
| MSLSKILPVVTACLLATTMGASASSIPEKASVCSGCHGQDGMGQPNIAPMIAGLNANYLNTQIELFLSGERQNVVMQGMAKELSDPAVRKEVMNYFANLPSYEFTNPEQRGDQADIRNPYRKLIFQGDWDRNIPACATCHGASGMGVDKFPRLASQHADYLKTQLMAWKIGTRSGDPLNMMGTIAKNLTDEEIENLSYYFASLRYEGHHHHHH | not soluble |
| MVKQIESKTAFQEALDAAGDKLVVVDFSATWCGPCKMIKPFFHSLSEKYSNVIFLEVDVDDCQDVASECEVKCMPTFQFFKKGQKVGEFSGANKEKLEATINELV | soluble |
| RLFGDNVVALAGDAGFRTYWLSNQARLGRYDTPVTAMANMAHFKTWADAPYDEALLPLLDAALAEPGRKVVFLHINGNHDNYCTRYPETATVYQGGAPYEDCYDNSIRYVDALLGAVMDRLGERRASLLFYPDHGLERHESVLGTFYHGGVRPSREAFDIPMFIWNSPAAPAPARREYDAPYSTEDNYGLILDWLG | not soluble |
| MAITDILSAKDIESALSSCQAADSFNYKSFFSTVGLSSKTPDQIKKVFGILDQDKSGFIEEEELQLFLKNFSSSARVLTSAETKAFLAAGDTDGDGKIGVEEFQSLVKA | soluble |
